Source: PMC4337669

Test system: H-NS (Escherichia coli)
Experiment: EMSA
Conditions: 40 mM HEPES-KOH pH 8.0, 100 mM K-glutamate, 0.022% NP-40, 100 µg/ml BSA, 10% glycerol, 2 or 8 mM Mg aspartate, 20 °C 20 min; 3% native PAGE in 0.5x TBE + 2.5% …

Q: “λPR-bgl template (linear pMK110 PCR fragment)” was tested. Which K half did it give?
A: The K half was 2 nM.
